Here are results for four molecules from patent publication US20240228645A1 (DRAGONFLY THERAPEUTICS, published 2024).

Read-outs that look alike come from different tables or passages of the source.

Assay [1] addresses T1, human BAFF-R expressed on cells (hBAFF-R-CHO isogenic CHO cells; BAFF-R+ cancer cells) (human, UniProt Q96RJ3 1-184).
T1 construct: whole, on cells; also called hBAFF-R^+ cells; BAFF-R+ CHO cells
In words: flow cytometry on hBAFFR-CHO cells, anti-mouse IgG(H+L)-PE. (In general: Flow cytometry measures light scatter and fluorescence of single cells or particles in a stream.)

For assay [2], the target named is T1, human BAFF-R expressed on cells …. Described as above. The source holds these as a separate data set.

As usually defined, the EC50 (read off the curve) is the concentration needed to bring the measured effect to its halfway point. Higher therefore signals lower potency in that assay.

B1: 10H7-C5 (antibody, V domains shown)
VH: EVQLVESGGGLVKPGGSLKLSCAASGFSFSRYAMSWVRQTPEKRLEWVATISDGGSYTHYRDNVKGRFTISRDNAKNNLNLQMSHLKSEDTAIYYCARNEMGLYFDYDVYAMDYWGQGTSVTVSS
VL: DIVMTQTPLSLPVSLGDQASISCRSSQSLLHSNGNTYLYWYLQKPGQSPKLLIHRVSNRFSGVPDRFGGSGSGTDFTLKIIRVEAEDLGVYFCFQGTHVPWTFGGGTKLEIK
notes: Hybridoma clone from DNA-immunized SWR/J mice; also called clone 10H7-C5
Take B1: the concentration for a half-maximal effect (EC50 (read off the curve)) in assay [1] is ~1000 pM.

B2: 1B3-A7 (antibody, V domains shown)
VH: EVQLVESGGGLVKPGGSLKLSCVVSGFTFSNYAMSWVRQTPEKRLEWVATISDGGGYTYYPDSVKGRFTISRDNAKNNLYLQMSHLKSEDTAIYYCARDDLGGGNYVSSYFDVWGTGTTVTVSS
VL: DVVMTQTPLSLPVSPGDQASISCRSSQSLVHSNGNTYLYWYLQKPGQSPKLLIYRVSNRFSGVPDRFSGSGSGTDFTLKINRVEAEDLGVYFCFQGTHVPLTFGSGTKLELK
notes: Hybridoma clone from DNA-immunized SWR/J mice; also called clone 1B3-A7
Take B2: the “EC50 (read off the curve)” value in assay [1] was 1000 to 2000 pM.

B3: 3A1 (antibody, V domains shown)
VH: QVQLQQPGAELVKPGASVKLSCKASGYTFTSYWMHWVKQRPGQGLEWIGEIDPFDSYTNYNQNFKGKATLTVDKSSSTAYMLLSSLTSDDSAVYYCARERLRLWSYYFDYWGQGTTLTVSS
VL: DVVMTQTPLSLPVSLGDQASISCRSSQSIVHSNGNTYLEWYLQKPGQSPKLLIYKVSNRLSGVPDRFSGSGSGTDFTLKISRVEAEDLGVYYCFQGSHDPFTFGSGTKLEIK
notes: Hybridoma clone from DNA-immunized SWR/J mice; also called clone 3A1
As to B3, in assay [2], the “EC50 (read off the curve)” value is ~300 pM.

B4: 7G4 (antibody, V domains shown)
VH: QVQLQQPGAELVKPGASVKLSCKASGYTFTSYWMHWVKQRPGQGLEWIGEVDPSDSYTNYNQKFKGKATLTVDKSSSTAYILLSNLTSDDSAVYYCARERVRLWSYFFDYWGQGTTLTVSS
VL: DVVMTQTPLSLPVSLGDQASISCRSSQSIVHSNGNTYLEWYLQKPGQSPKLLIYKVSNRLSGVPDRFSGSGSGTDFTLKISRVEAEDLGVYYCFQGSHDPFTFGSGTKLEIK
notes: Hybridoma clone from DNA-immunized SWR/J mice; also called clone 7G4
On to B4, for which the half-maximal effective concentration (EC50 (read off the curve)) in assay [2] is ~300 pM.
